Data from publication PMC5735978.
Values belong to the substance of their own block, whether it stands above or below them.

What was measured:
14-3-3γ = 14-3-3γ (UniProt P61981); assay: overlay of His-14-3-3γ on blotted Flag-PAK6; conditions: reference: PAK6 wild type; sites S113
[1] = molecular target: 6xHis-14-3-3γ wild-type (human) (UniProt P61981); assay: native gel or EMSA; blue native gel (4-16%) of His-14-3-3γ after incubation with Flag-PAK6 S531N (4:1 molar ratio) under kinase assay conditions with or without 1 mM ATP; Coomassie staining
LRRK2 = LRRK2 (UniProt Q5S007); assay: overlay of His-14-3-3γ on blotted Flag-LRRK2; conditions: reference: 14-3-3γ wild type; sites S59

binding against the reference (14-3-3γ): weaker
Substance: PAK6 (from UniProt Q9NQU5) PAK6 S113A

stoichiometry N [1]: 2
Substance: 6xHis-14-3-3γ wild-type (from UniProt P61981 1-247) (natural protein)

other: percent reduction versus wild type (LRRK2): 80%
Substance: 14-3-3γ (from UniProt P61981) 14-3-3γ S59D
